Assay results published in PMC8939769.

Tests used:
[1] = target: SARS-CoV-2 S trimer (S2P ectodomain protein) (SARS-CoV-2) (UniProt P0DTC2)
[2] = target: SARS-CoV-2 S trimer (S2P ectodomain protein) (SARS-CoV-2) (UniProt P0DTC2); assay: not stated; binding kinetics (ka, kd, KD) on the SARS-CoV-2 S trimer (S2P ectodomain protein); representative of at least two independent assays; assay details in the Supplementary materials

Substance: AZD7442 (combination of AZD8895 and AZD1061)
- neutralization of the USA-WA1/2020 strain of SARS-CoV-2 in vitro, IC50 [1]: 10 ng/mL
- Kd [2]: 0.0137 nM
